B1: mAb<AFP-L3>rRb-19B12-IgG (antibody, V domains shown)
VH: QSVEESGGRLVAPGTPLTLTCTVSGIDLSTYGMGWVRQAPGKGLEWIGIIGDNGSTYYANWAKGRFTISKTSTTVDLKMTSLTTEDTATYFCARDRDPSSSGYYFKMWGPGTLVTVSL
VL: ALVMTQTPSSVSAAVGGTVTINCQASQSISSYLAWYQQKPGQPPKLLIFGASNLESGVPSRFKGSGSGTEFTLTISDLECDDAATYYCQTAFYIFSSDNAFGGGTEVVVK
notes: Recombinant rabbit IgG (B-cell supernatant in the Hit-ELISA, expressed in HEK293 afterwards); also called antibody 19B12; clone 19B12
B2: mAb<AFP-L3>rRb-3C5-IgG (antibody, V domains shown)
VH: QSVEESGGRLVAPGTPLTLTCTVSGIDLSTYGMGWVRQAPGKGLEYIGIIDSGSTYYANWAKGRFTISKTSTTVDLKMTSLTTEDTATYFCARDRDPSSSGYYFKMWGPGTLVTVSL
VL: ALVMTQTPSSVSAAVGGTVTINCQASQSIGSYLAWYQQKPGQPPRLLIYGASNLESGVPSRFKGSGSGTEFTLTISDLECDDAATYYCQTAFYIFSSDNAFGGGTEVVVK
notes: Recombinant rabbit IgG; also called antibody 3C5; clone 3C5
B3: AFP(243-261)[Ac-243; Asn(G0F)251]amid (peptide)
peptide: Ac-LSQKFTKVN(G0F)FTEIQKLVLD-NH2
notes: also called BMO 35.000315
B4: AFP(248-256)Ac-248]amid (peptide)
peptide: Ac-TKVNFTEIQ-NH2
notes: also called BMO 35.000373

Assay [1] concerns the target T1, AFP(243-261)[Asn(Fuc-GlcNAc)Bi-PEG] (human, not fully specified; Fuc-GlcNAc disaccharide on Asn corresponding to Asn-251; C-terminal E(biotinyl-PEG)-NH2).
T1 peptide: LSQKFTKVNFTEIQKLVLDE
Description: SPR; ratio of KD against the KD for AFP(243-261)-G0F-Bi. For orientation: SPR reads the build-up and loss of mass on a sensor chip optically.

Assay [2] deals with T1, AFP(243-261)[Asn(Fuc-GlcNAc)Bi-PEG]. Description: SPR Biacore T200, 37 C; molar ratio (binding stoichiometry). How it is done:
(§1) Detailed kinetic investigations were performed using a BIAcore™ T200 instrument from GE Healthcare at 37° C. The 5 rabbit mAb<AFP-L3>L9B12, 3C5, 3D2, 3A3 and 6B6, identified via the kinetic screening, were kinetically characterized for binding AFP-L3 peptides [0656] […] Asn(G0F)-Bi [0658]
(§2) The rabbit antibody capture system was immobilized on flow cells 1-4 as described with 700 to 800 RU. Flow cell 1 served as reference, flow cells 2, 3 and 4 were used for interaction measurements. 150 nM antibodies 1-5 were injected at 10 μL/min for 30 seconds. The Capture Levels (CL) in resonance units RU were monitored. Peptide analyte concentration series from 3.3-270 nM were injected at 60 μl/min. The association phase was monitored for 3 minutes, the dissociation phase was monitored for 10 minutes. The regeneration was performed by an injection of 10 mM Glycine pH 2.0 at 20 μL/min for 30 seconds, followed by 2 injections of 10 mM Glycine pH 2.25 for 60 seconds. The kinetic rate constants and the dissociation equilibrium constants KD were determined using a Langmuir 1:1 fitting model according to the BIAcore™ T200 Evaluation SW 3.2. Secondly, the Langmuir 1:1 fitting Scrubber-SW V2.0c was applied.

Assay [3] deals with T2, AFP(243-261)[Acetyl-243; Asn(G0F)251; Bi-PEG] (human, N-terminal acetylation; G0F (fucosylated biantennary N-glycan) on Asn corresponding to Asn-251; C-terminal E(biotinyl-PEG)-NH2).
T2 construct: Synthetic glycopeptide
T2 peptide: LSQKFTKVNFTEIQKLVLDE
The description is as above. Here is the method: as §1, §2

Assay [4] has as its target B4. Description: affinity in solution; ratio of KD against the KD for AFP(243-261)-G0F. How it is done: (§3) The dissociation equilibrium constant K) was determined via the Affinity in Solution method (AiS).
(§4) With increasing peptide concentration as a competitor, the ‘free’ antibody in solution decreases. The determined free antibody concentrations for the competition experiment were plotted versus the peptide competitor concentration. The regeneration was performed using a Guanidinium/NaOH solution, as supplied by Cytiva. Two independent series were analyzed for each interaction. The Affinity in Solution model from Biacore Evaluation software was used to evaluate the data.

The target of assay [5] is T2, AFP(243-261)[Acetyl-243; Asn(G0F)251; …. Description: SPR; ratio of KD against the KD for AFP(243-261)-G0F-Bi (reference itself). How it is done: as §3, §4
Assay [6] concerns the target T1, AFP(243-261)[Asn(Fuc-GlcNAc)Bi-PEG]. Description: SPR Biacore T200, 37 C, antibody captured on C1 chip, peptide as analyte, Langmuir 1:1. Here is the method:
as §1, §2

In assay [7] the target is T2, AFP(243-261)[Acetyl-243; Asn(G0F)251; …. The assay is described as above. Here is the method: as §1, §2
In assay [8] the target is T3, AFP(243-261)[Ac-243; Asn(G2)251; Bi-PEG] (human, N-terminal acetylation; G2 (non-fucosylated biantennary N-glycan) on Asn corresponding to Asn-251; C-terminal E(biotinyl-PEG)-NH2).
T3 peptide: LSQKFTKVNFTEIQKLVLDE
Description: SPR; ratio of KD against the KD for AFP(243-261)-G0F-Bi; SPR; ratio of KD to the KD for G0F. How it is done:
as §1, §2

Assay [9] deals with B4. Description: SPR affinity in solution: 10 nM antibody with 200 µM-0.1 nM free peptide, free antibody read on AFP(243-261)-G0F-Bi CAP chip, n=2. How it is done: as §3, §4
Assay [10] concerns the target B3. Description: SPR affinity in solution: 10 nM antibody with 120 nM-0.01 nM free peptide, free antibody read on AFP(243-261)-G0F-Bi CAP chip, n=2. Here is the method: as §3, §4
Assay [11] addresses T3, AFP(243-261)[Ac-243; Asn(G2)251; Bi-PEG]. Description: SPR Biacore T200, 37 C; simulation for 7.3 µM-10 nM extrapolated from measured data; SPR simulation for 7.3 µM-10 nM, extrapolated lower bound.
Assay [12] has the same target. Description: SPR Biacore T200, 37 C, weak binding (cell shifted to the kd column); SPR, weak binding; KD only, no rate constants.
For assay [13], the target named is T2, AFP(243-261)[Acetyl-243; Asn(G0F)251; …. Description: SPR Biacore T200, 37 C, antibody captured on C1 chip, peptide as analyte, Langmuir 1:1; apparent value (complex binding behavior). How it is done: as §1, §2
By visual inspection, the kinetic signature for antibody 3C5 is close to the antibody saturation for the highest shown concentration 90 nM.

Assay [14] concerns the target B1. Description: SPR affinity in solution (Biacore, CAP chip): 10 nM antibody equilibrated with the non-biotinylated peptide at varied concentration; free antibody measured by its binding to captured AFP(243-261)-G0F-Bi; n=2. How it is done: as §3, §4
In assay [15] the target is B2. Description: SPR affinity in solution (Biacore, CAP chip): 10 nM antibody equilibrated with the non-biotinylated peptide at varied concentration; free antibody measured by its binding to captured AFP(243-261)-G0F-Bi; n=2 [continued), upper plot]. Here is the method:
as §3, §4

For assay [16], the target named is B2. Description: SPR affinity in solution (Biacore, CAP chip): 10 nM antibody equilibrated with the non-biotinylated, non-glycosylated peptide at varied concentration; free antibody measured by its binding to captured AFP(243-261)-G0F-Bi; n=2 [continued]. Here is the method: as §3, §4
In assay [17] the target is B1. Description: SPR affinity in solution (Biacore, CAP chip): 10 nM antibody equilibrated with the non-biotinylated, non-glycosylated peptide at varied concentration; free antibody measured by its binding to captured AFP(243-261)-G0F-Bi; n=2 [continued), lower plot]. Here is the method:
as §3, §4

The star is where a group is joined. G0F = fucosylated biantennary N-glycan, CC(=O)N[C@@H]1[C@@H](O)[C@H](O[C@@H]2O[C@H](CO)[C@@H](O[C@@H]3O[C@H](CO[C@H]4O[C@H](CO)[C@@H](O)[C@H](O)[C@@H]4O[C@@H]4O[C@H](CO)[C@@H](O)[C@H](O)[C@H]4NC(C)=O)[C@@H](O)[C@H](O[C@H]4O[C@H](CO)[C@@H](O)[C@H](O)[C@@H]4O[C@@H]4O[C@H](CO)[C@@H](O)[C@H](O)[C@H]4NC(C)=O)[C@@H]3O)[C@H](O)[C@H]2NC(C)=O)[C@@H](CO[C@@H]2O[C@@H](C)[C@@H](O)[C@@H](O)[C@@H]2O)O[C@H]1*

Broadly, the koff is the rate constant with which the complex falls apart. What is called kon is a measure of how fast the partners come together.

Regarding B1, the “Delta KD” value in assay [1] is above 7 fold; with AFP(248-256)Ac-248]amid [4], above 5000 fold; in assay [5], 1 fold; in assay [8] it was above 245 fold. In addition, the MR in assay [2] amounted to 1.3; in [3], 1.4. Also, the Kd in assay [6] was 18 nM; in [7], 2.5 nM; with AFP(248-256)Ac-248]amid [9], 5700 nM; in assay [10] it was 0.9 nM; in assay [11], above 620 nM. Moreover, the dissociation rate constant (koff) in assay [6] is 0.0047 s⁻¹; in [7], 0.0015 s⁻¹. The figures for the kon in assay [6] and in [7] were 270000 M⁻¹ s⁻¹ and 600000 M⁻¹ s⁻¹, respectively. For the same molecule, the t/2 diss in [6] was 2.5 min; in [7], 8 min.

For the molecule B2, the “Delta KD” value in assay [1] was above 11 fold; with AFP(248-256)Ac-248]amid [4], above 5000 fold; in [5] it was 1 fold; in assay [8], above 180 fold. The MR in [2] worked out at 1.5; in assay [3], 1.6. Moreover, the Kd amounted to 35 nM in assay [6]; 560 nM in [12]; 3.1 nM in [13]; 12600 nM in the assay with AFP(248-256)Ac-248]amid [9]; 0.4 nM in [10]. Further, the dissociation rate constant (koff) in assay [6] stood at 0.016 s⁻¹; in assay [13], 0.0032 s⁻¹. Also, the kon in assay [6] is 450000 M⁻¹ s⁻¹; in assay [13], 1e+06 M⁻¹ s⁻¹. Moreover, the t/2 diss in [6] was found to be 0.7 min.

With B3, the “IC50 (read off the curve)” value with mAb<AFP-L3>rRb-19B12-IgG [14] is around 6 nM; in the assay with mAb<AFP-L3>rRb-3C5-IgG [15], around 5 nM.

As to B4, the binding result in the assay with mAb<AFP-L3>rRb-3C5-IgG [16] and with mAb<AFP-L3>rRb-19B12-IgG [17] was “binds” each time.

(Values after patent US20250155441A1 (ROCHE DIAGNOSTICS OPERATIONS, published 2025).)
